In publication PMC4445678 (Structure (London, England : 1993), 2010):
Where two headings read alike, the source gives them in different places. Blank lines part the entries; values can stand above or below the molecule they belong to.

Key:
CBX7 cbox (Homo sapiens) = CBX7 cbox (Homo sapiens) (UniProt O95931); conditions: cited from earlier work
[1] = biological target: T1, C-RING1B (C-terminal domain of RING1B), wild-type (human, UniProt Q99496 222-336); test: SPR
T1 sequence (looked up): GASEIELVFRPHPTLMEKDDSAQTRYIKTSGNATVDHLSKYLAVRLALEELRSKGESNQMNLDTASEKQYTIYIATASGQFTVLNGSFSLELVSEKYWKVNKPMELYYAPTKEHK

C-RING1B 223–333 N306D [2] = biological target: T2, C-RING1B 223–333 N306D (human, UniProt Q99496 223-333, N306D); test: crystal structure
T2 sequence (looked up): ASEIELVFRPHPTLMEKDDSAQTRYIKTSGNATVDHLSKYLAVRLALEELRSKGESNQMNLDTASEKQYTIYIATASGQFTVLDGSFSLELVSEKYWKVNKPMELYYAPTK

[3] = biological target: T1, C-RING1B (C-terminal domain of RING1B), …; test: AUC
C-RING1B 223–333 N306D [4] = biological target: T2, C-RING1B 223–333 N306D; test: crystal structure; remark: listed apart in the source

Molecule: RING1B C-RING1B (from UniProt Q99496)
Kd (CBX7 cbox (Homo sapiens)): 9.2 nM

Kd [1]: 90 nM
Molecule: RPRLKNVDRSTAQQLAVTVGNVTVIITDFKEKTRS (domain or fragment, human, UniProt Q8N488 145-179, looked up) [MBP-RYBP 145–179]

binding result (C-RING1B 223–333 N306D [2]): binds
Molecule: RPRLKNVDRSTAQQLAVTVGNVTVIITDFKEKTRS (domain or fragment, human, UniProt Q8N488 145-179, looked up) [RYBP 145–179]

stoichiometry N [3]: 1
B1: RYBP 145–198 (domain or fragment, human, UniProt Q8N488 145-198, looked up)
chain: RPRLKNVDRSTAQQLAVTVGNVTVIITDFKEKTRSSSTSSSTVTSSAGSEQQNQ

Kd [1]: 100 nM
B2: MBP-RYBP 145–198 (domain or fragment, human, UniProt Q8N488 145-198, looked up)
chain: RPRLKNVDRSTAQQLAVTVGNVTVIITDFKEKTRSSSTSSSTVTSSAGSEQQNQ

binding result (C-RING1B 223–333 N306D [4]): binds
Molecule: EVTVTDITANSITVTFREAQAAEGFFRDRS (domain or fragment, human, UniProt O95931 219-248, looked up) [cbx7 219–248]
